# Laboratory results reported in publication PMC12839305 (Biomolecules, 2025).
# T1: LRP1 cluster II (CL II, 786–1165 aa) (human, UniProt Q07954 786-1165)
# T1 construct: not shown: FLAG or 6 × HIS (same vector as Gn)
# T1 sequence: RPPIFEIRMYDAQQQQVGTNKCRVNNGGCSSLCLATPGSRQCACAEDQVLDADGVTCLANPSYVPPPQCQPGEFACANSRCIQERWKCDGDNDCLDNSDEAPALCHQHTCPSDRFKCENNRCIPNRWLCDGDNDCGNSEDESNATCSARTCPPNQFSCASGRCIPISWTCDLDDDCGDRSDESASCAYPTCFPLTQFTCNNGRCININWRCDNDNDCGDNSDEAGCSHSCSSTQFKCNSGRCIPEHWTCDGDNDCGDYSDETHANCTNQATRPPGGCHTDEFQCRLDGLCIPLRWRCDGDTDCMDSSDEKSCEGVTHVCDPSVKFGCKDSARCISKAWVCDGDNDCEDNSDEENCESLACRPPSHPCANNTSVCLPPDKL
# B1: LRP1 CL IV-A, repeats A21–A24 (3332–3491 aa) (domain or fragment)
# chain: not shown
# B2: LRP1 CL IV-B, repeats A25–A28 (3492–3649 aa) (domain or fragment)
# chain: not shown
# B3: RVFV glycoprotein Gn head domain (154–469 aa) (domain or fragment)
# chain: EDPHLRNRPGKGHNYIDGMTQEDATCKPVTYAGACSSFDVLLEKGKFPLFQSYAHHRTLLEAVHDTIIAKADPPSCDLLSAHGNPCMKEKLVMKTHCPNDYQSAHHLNNDGKMASVKCPPKYELTEDCNFCRQMTGASLKKGSYPLQDLFCQSSEDDGSKLKTKMKGVCEVGVQALKKCDGQLSTAHEVVPFAVFKNSKKVYLDKLDLKTEENLLPDSFVCFEHKGQYKGTMDSGQTKRELKSFDISQCPKIGGHGSKKCTGDAAFCSAYECTAQYANAYCSHANGSGIVQIQVSGVWKKPLCVGYERVVVKRELS
# Key:
# Conditions in all cases: both partners purified
# [1] = target: B3; test: BLI; […]; 300 s association, 300 s dissociation; […], global 1:1 model; Octet RED96
# [2] = target: T1, LRP1 cluster II (CL II, 786–1165 aa); test: BLI
# [3] = target: T2, LRP1 cluster IV (CL IV, 3332–3779 aa) (human, UniProt Q07954 3332-3779); test: BLI
# [4] = target: T1, LRP1 cluster II (CL II, 786–1165 aa); test: BLI; […]; 300 s association, 300 s dissociation; […], global 1:1 model; Octet RED96
# [5] = target: T2, LRP1 cluster IV (CL IV, 3332–3779 aa); test: as above
# T2 sequence (Q07954 3332-3779): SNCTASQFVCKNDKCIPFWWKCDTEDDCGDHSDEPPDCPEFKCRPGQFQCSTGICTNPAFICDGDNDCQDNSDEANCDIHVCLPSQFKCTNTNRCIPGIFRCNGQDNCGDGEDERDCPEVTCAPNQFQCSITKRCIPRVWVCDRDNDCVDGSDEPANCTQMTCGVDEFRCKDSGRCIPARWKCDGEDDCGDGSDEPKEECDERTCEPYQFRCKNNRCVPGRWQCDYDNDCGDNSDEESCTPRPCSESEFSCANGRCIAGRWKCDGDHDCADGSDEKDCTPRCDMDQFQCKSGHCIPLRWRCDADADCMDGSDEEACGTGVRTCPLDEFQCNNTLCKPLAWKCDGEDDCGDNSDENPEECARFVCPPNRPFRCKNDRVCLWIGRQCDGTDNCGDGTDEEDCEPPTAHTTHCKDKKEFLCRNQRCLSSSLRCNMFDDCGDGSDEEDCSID
binder,measurement,setting,value
B1,Kd,[1],72 nM
B2,Kd,[1],36 nM
B3,Kd,[2],220 nM
same,Kd,[3],120 nM
same,Kd,[4],89 nM
same,Kd,[5],56 nM
